Legend:
[1] = molecular target: recombinant UBE3A protein (Homo sapiens (Human)) (UniProt Q05086); experiment: 3-step Simoa; capture GTX; UBE3A 125 ng/ml
[2] = molecular target: recombinant UBE3A protein (Homo sapiens (Human)) (UniProt Q05086); experiment: 2-step Simoa; capture GTX; UBE3A 31.3 ng/ml
[3] = molecular target: recombinant UBE3A protein (Homo sapiens (Human)) (UniProt Q05086); experiment: 2-step Simoa; capture GTX; UBE3A 7.81 ng/ml
[4] = molecular target: recombinant UBE3A protein (Homo sapiens (Human)) (UniProt Q05086); experiment: 3-step Simoa; capture GTX; UBE3A 7.81 ng/ml
[5] = molecular target: recombinant UBE3A protein (Homo sapiens (Human)) (UniProt Q05086); experiment: Simoa; capture GTX; SBG 75 pm; UBE3A 0.800 ng/ml
[6] = molecular target: recombinant UBE3A protein (Homo sapiens (Human)) (UniProt Q05086); experiment: Simoa; capture GTX; SBG 150 pm; UBE3A 0.160 ng/ml
[7] = molecular target: recombinant UBE3A protein (Homo sapiens (Human)) (UniProt Q05086); experiment: Simoa; capture GTX; SBG 75 pm; UBE3A 0.0320 ng/ml
[8] = molecular target: recombinant UBE3A protein (Homo sapiens (Human)) (UniProt Q05086); experiment: Simoa; capture GTX; 3E5 0.2 ug/ml; UBE3A 4.00 ng/ml
[9] = molecular target: recombinant UBE3A protein (Homo sapiens (Human)) (UniProt Q05086); experiment: Simoa; capture GTX; 3E5 0.8 ug/ml; UBE3A 0.160 ng/ml
[10] = molecular target: recombinant UBE3A protein (Homo sapiens (Human)) (UniProt Q05086); experiment: Simoa; capture GTX; 3E5 0.4 ug/ml; UBE3A 0.0320 ng/ml
[11] = molecular target: recombinant UBE3A protein (Homo sapiens (Human)) (UniProt Q05086); experiment: Simoa; capture GTX; 3E5 0.2 ug/ml; UBE3A 0.00128 ng/ml
[12] = molecular target: recombinant UBE3A protein (Homo sapiens (Human)) (UniProt Q05086); experiment: Simoa; capture GTX; 3E5 0.8 ug/ml; UBE3A 0.00640 ng/ml
[13] = molecular target: recombinant UBE3A protein (Homo sapiens (Human)) (UniProt Q05086); experiment: Simoa head-to-head, Table 11; capture MS 2F6; UBE3A 0.80 ng/ml
[14] = molecular target: recombinant UBE3A protein (Homo sapiens (Human)) (UniProt Q05086); experiment: 3-step Simoa, 120 min bead step; capture GTX; UBE3A 4.00 ng/ml
[15] = molecular target: recombinant UBE3A protein (Homo sapiens (Human)) (UniProt Q05086); experiment: Simoa head-to-head, Table 11; capture MS 2F6; UBE3A 0.032 ng/ml
[16] = molecular target: recombinant UBE3A protein (Homo sapiens (Human)) (UniProt Q05086); experiment: Simoa; capture GTX + helper beads; 3E5 0.4 ug/ml; UBE3A 4.00 ng/ml
[17] = molecular target: recombinant UBE3A protein (Homo sapiens (Human)) (UniProt Q05086); experiment: Simoa; capture GTX, no helper beads; 3E5 0.1 ug/ml; UBE3A 4.00 ng/ml
[18] = molecular target: recombinant UBE3A protein (Homo sapiens (Human)) (UniProt Q05086); experiment: Simoa; capture GTX, no helper beads; 3E5 0.4 ug/ml; UBE3A 20.0 ng/ml
[19] = molecular target: recombinant UBE3A protein (Homo sapiens (Human)) (UniProt Q05086); experiment: Simoa; capture GTX, no helper beads; 3E5 0.4 ug/ml; UBE3A 0.160 ng/ml
[20] = molecular target: recombinant UBE3A protein (Homo sapiens (Human)) (UniProt Q05086); experiment: Simoa; capture GTX, no helper beads; 3E5 0.1 ug/ml; UBE3A 0.00640 ng/ml

Chain of UniProt Q05086 (Q05086 whole entry): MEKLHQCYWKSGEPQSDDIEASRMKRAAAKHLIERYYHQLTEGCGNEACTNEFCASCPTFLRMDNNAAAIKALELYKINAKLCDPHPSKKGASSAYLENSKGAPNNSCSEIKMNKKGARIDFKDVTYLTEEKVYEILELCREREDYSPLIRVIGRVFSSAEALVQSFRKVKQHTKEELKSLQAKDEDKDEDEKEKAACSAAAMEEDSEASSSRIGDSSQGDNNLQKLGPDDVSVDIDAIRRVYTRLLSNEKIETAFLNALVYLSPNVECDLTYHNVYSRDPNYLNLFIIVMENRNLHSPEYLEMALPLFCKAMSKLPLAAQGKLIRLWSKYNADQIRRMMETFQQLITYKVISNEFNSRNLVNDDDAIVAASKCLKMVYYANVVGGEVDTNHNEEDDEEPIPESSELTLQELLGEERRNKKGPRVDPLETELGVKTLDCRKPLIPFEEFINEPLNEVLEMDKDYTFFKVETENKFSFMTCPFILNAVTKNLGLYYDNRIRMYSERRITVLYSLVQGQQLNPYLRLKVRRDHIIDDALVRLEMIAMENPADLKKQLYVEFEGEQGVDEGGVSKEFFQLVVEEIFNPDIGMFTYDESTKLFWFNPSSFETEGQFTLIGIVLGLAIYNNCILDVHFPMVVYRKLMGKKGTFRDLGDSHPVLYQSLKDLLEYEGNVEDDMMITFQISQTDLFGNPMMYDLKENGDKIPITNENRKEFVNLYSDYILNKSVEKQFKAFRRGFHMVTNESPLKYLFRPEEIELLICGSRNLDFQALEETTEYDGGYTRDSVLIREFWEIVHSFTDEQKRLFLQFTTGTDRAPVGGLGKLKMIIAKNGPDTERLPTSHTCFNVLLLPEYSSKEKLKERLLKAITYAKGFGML

**Q.** How did the AEB1 [1] turn out when NB500-240 (Novus) (antibody) was run?
**A.** 0.122

**Q.** And the AEB2 [1]?
**A.** 0.122

**Q.** And the Ave AEB [1]?
**A.** 0.122

**Q.** And the Signal to Background [1]?
**A.** 55.8

**Q.** What about the AEB1 [2] of the same substance?
**A.** 0.141

**Q.** And the AEB2 [2]?
**A.** 0.126

**Q.** What about the Ave AEB [2] of the same substance?
**A.** 0.134

**Q.** What about the Signal to Background [2] of the same substance?
**A.** 40.8

**Q.** And the AEB1 [3]?
**A.** 0.058

**Q.** What about the AEB2 [3] of the same substance?
**A.** 0.0481

**Q.** And the Ave AEB [3]?
**A.** 0.053

**Q.** And the Signal to Background [3]?
**A.** 16.2

**Q.** What about the AEB1 [4] of the same substance?
**A.** 0.0143

**Q.** And the AEB2 [4]?
**A.** 0.0128

**Q.** And the Ave AEB [4]?
**A.** 0.0135

**Q.** What about the Signal to Background [4] of the same substance?
**A.** 6.2

**Q.** For “anti-UBE3A antibody 3E5 (SAB1404508-100 ug, Millipore-Sigma)”, which AEB1 [5] is on record?
**A.** 0.078

**Q.** What about the AEB2 [5] of the same substance?
**A.** 0.115

**Q.** What about the AEB3 [5] of the same substance?
**A.** 0.126

**Q.** And the Average AEB [5]?
**A.** 0.106

**Q.** And the Signal to Background [5]?
**A.** 24.3

**Q.** What about the AEB1 [6] of the same substance?
**A.** 0.0773

**Q.** What about the AEB2 [6] of the same substance?
**A.** 0.0769

**Q.** And the Average AEB [6]?
**A.** 0.0771

**Q.** And the Signal to Background [6]?
**A.** 5.82

**Q.** What about the AEB1 [7] of the same substance?
**A.** 0.0091

**Q.** And the AEB2 [7]?
**A.** 0.0117

**Q.** What about the AEB3 [7] of the same substance?
**A.** 0.0116

**Q.** And the Average AEB [7]?
**A.** 0.0108

**Q.** And the Signal to Background [7]?
**A.** 2.47

**Q.** What about the AEB1 [8] of the same substance?
**A.** 1.18

**Q.** What about the AEB2 [8] of the same substance?
**A.** 2.32

**Q.** What about the AEB3 [8] of the same substance?
**A.** 1.18

**Q.** And the Average AEB [8]?
**A.** 1.56

**Q.** What about the Signal to Background [8] of the same substance?
**A.** 39.7

**Q.** What about the AEB1 [9] of the same substance?
**A.** 0.235

**Q.** And the AEB2 [9]?
**A.** 0.263

**Q.** And the AEB3 [9]?
**A.** 0.226

**Q.** And the Average AEB [9]?
**A.** 0.241

**Q.** What about the Signal to Background [9] of the same substance?
**A.** 1.97

**Q.** What about the AEB1 [10] of the same substance?
**A.** 0.0958

**Q.** What about the AEB2 [10] of the same substance?
**A.** 0.0924

**Q.** And the AEB3 [10]?
**A.** 0.095

**Q.** What about the Average AEB [10] of the same substance?
**A.** 0.0944

**Q.** What about the Signal to Background [10] of the same substance?
**A.** 1.51

**Q.** What about the AEB1 [11] of the same substance?
**A.** 0.0457

**Q.** What about the AEB2 [11] of the same substance?
**A.** 0.0439

**Q.** And the AEB3 [11]?
**A.** 0.0421

**Q.** What about the Average AEB [11] of the same substance?
**A.** 0.0439

**Q.** And the Signal to Background [11]?
**A.** 1.12

**Q.** What about the AEB1 [12] of the same substance?
**A.** 0.114

**Q.** And the AEB2 [12]?
**A.** 0.127

**Q.** And the AEB3 [12]?
**A.** 0.117

**Q.** What about the Average AEB [12] of the same substance?
**A.** 0.12

**Q.** And the Signal to Background [12]?
**A.** 0.976

**Q.** And the AEB1 [13]?
**A.** 0.0183

**Q.** And the AEB2 [13]?
**A.** 0.0197

**Q.** And the Ave AEB [13]?
**A.** 0.019

**Q.** And the Signal to Background [13]?
**A.** 5.03

**Q.** What about the AEB1 [14] of the same substance?
**A.** 0.533

**Q.** And the AEB2 [14]?
**A.** 0.55

**Q.** What about the Ave AEB [14] of the same substance?
**A.** 0.542

**Q.** What about the Signal to Background [14] of the same substance?
**A.** 318

**Q.** What about the AEB1 [15] of the same substance?
**A.** 0.0032

**Q.** What about the AEB2 [15] of the same substance?
**A.** 0.0043

**Q.** And the Ave AEB [15]?
**A.** 0.0037

**Q.** And the Signal to Background [15]?
**A.** 0.986

**Q.** And the AEB1 [16]?
**A.** 1.16

**Q.** What about the AEB2 [16] of the same substance?
**A.** 1.12

**Q.** And the Average AEB [16]?
**A.** 1.14

**Q.** And the Signal to Background [16]?
**A.** 58.5

**Q.** What about the AEB1 [17] of the same substance?
**A.** 0.607

**Q.** What about the AEB2 [17] of the same substance?
**A.** 0.603

**Q.** What about the Average AEB [17] of the same substance?
**A.** 0.605

**Q.** What about the Signal to Background [17] of the same substance?
**A.** 106

**Q.** What about the AEB1 [18] of the same substance?
**A.** 6.8

**Q.** And the AEB2 [18]?
**A.** 6.32

**Q.** And the Average AEB [18]?
**A.** 6.56

**Q.** What about the Signal to Background [18] of the same substance?
**A.** 336

**Q.** And the AEB1 [19]?
**A.** 0.1

**Q.** And the AEB2 [19]?
**A.** 0.108

**Q.** What about the Average AEB [19] of the same substance?
**A.** 0.104

**Q.** What about the Signal to Background [19] of the same substance?
**A.** 5.33

**Q.** What about the AEB1 [20] of the same substance?
**A.** 0.0087

**Q.** And the AEB2 [20]?
**A.** 0.0092

**Q.** And the Average AEB [20]?
**A.** 0.0089

**Q.** What about the Signal to Background [20] of the same substance?
**A.** 1.56
